The supplement of paper PMC9170038

Test system: MS2 coat protein
Assay: apparent KD of MS2 coat protein; designed switch direction (-1 OFF switch, 1 ON switch): -1; higher = weaker reporter binding
Outline: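 Designed RNA switches were transcribed on Illumina chips by stalled E. coli RNA polymerase and titrated with SNAP-549-labelled MS2 coat protein from 0.7 or 1.5 nM, doubling to 3 µM. Step length ran from 0.8–1.5 h at the lowest concentration to 10–20 min at the highest. The apparent KD is the median over clusters for each design, from curve-fitted normalised cluster fluorescence.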

[1] = Eterna round: R95, input ligand: FMN 200 uM
[2] = Eterna round: R95, input ligand: microRNA oligo, concentration not stated
[3] = Eterna round: R95, input ligand: none
[4] = input ligand: microRNA oligo, concentration not stated

Sequence	apparent KD of MS2 coat protein [2] [nM]	apparent KD of MS2 coat protein (input ligand: FMN 200 uM) [nM]	apparent KD of MS2 coat protein (input ligand: none) [nM]	further results
CCGAGGUGGCGGUCCUAUGACAUGAGGAUCACCCAUGUACCUCGCCACGAGCUUUUUGCUCAUCUUAUAAUUCUCGG [Edbibice] (puzzle: Sensor v3, turn-off variant 1)	18.9	–	–	apparent KD of MS2 coat protein [1]: 17.2 nM; apparent KD of MS2 coat protein [3]: 16.6 nM
CCGAGUCGAGUGAGGAUAUAGCUAAGACCGCUUAGCUAGAAGGCACAUGAGGAUCACCCAUGUCUUAGGAGAAG [Eternabot (L1) Solution 80] (Eterna round: R97, puzzle: Brourd's mod of Exclusion 4)	–	22.4	22.2	–
CCGCAAAAGCAGGAUAUCGUAUCGGAUACGAUACGAGAAGGGCUAACAUGAGGAUCACCCAUGUGUCCUAGCGG [Fiskers Ex 6 - 38] (puzzle: Exclusion 6)	15.4	–	–	–
CCGCAAAAGGAGGAUAUCGUAUCGGAUACGAUACGAGAAGGCUUUACAUGAGGAUCACCCAUGUGUCCUAGCGG [Fiskers Ex 6 - 47] (puzzle: Exclusion 6)	13.4	–	–	–
CCGCAAAUGCAGGAUAUCGUAUCGGAUACGAUACGAGAAGGGCAUACAUGAGGAUCACCCAUGUGUCCUAGCGG [Fiskers Ex 6 - 43] (puzzle: Exclusion 6)	16	–	–	–
CCGCAUAUGGAGGAUAUCGUAUCGGAAACGAUACGAGAAGGCUAAACAUGAGGAUCACCCAUGUUCCUUAACGG [Fiskers Ex 6 - 29] (puzzle: Exclusion 6)	15.2	–	–	–
CCGCCGCAAGGAUAUACUUGCGGUGGUGUUCGAGUUCUUUUACUUGAGGAUCACCCAAGUAGAAGGUGCAAAAC [jl-ex2.4.55 ViennaUCT mod] (Eterna round: R97, puzzle: Exclusion 2)	–	11.9	11.5	–
CCGCCUGGAUAGGAUAUAGAGCUUUGAGAGGUCCUAGAAGGGUCCACAUGAGGAUCACCCAUGUCACAAUAUCG [Eternabot (L1) Solution 71] (Eterna round: R97, puzzle: Exclusion 6)	–	28	29.6	–
CCGCUACAUGAGGAUCACCCAUGUCAGGAUAUCGUACGUUCGUCGAAAGACGAUCGUACGAGAAGGGUGAGCGG [Eli x1 4.38] (Eterna round: R97, puzzle: Exclusion 1)	–	138	187	–
CCGCUGCAAGGAUAUACUUGCGGUGGUGUUCGAGUUCUUCUACUUGAGGAUCACCCAAGUAGAAGGUGCAAAAC [jl-ex2.4.56 ViennaUCT mod] (Eterna round: R97, puzzle: Exclusion 2)	–	12.6	13.5	–
CCGGAAAGGGAGGAUAUAGGAGUCGAUAGACACCUAGAAGGCCUGACAUGAGGAUCACCCAUGUGUCCUACCGG [Fiskers Ex 6 - 91] (puzzle: Exclusion 6)	13.7	–	–	–
CCGGAAAUGAAGGAUAUAGGAGUCGAUAGACUCCUAGAAGGUCAUACAUGAGGAUCACCCAUGUGUCCUACCGG [Fiskers Ex 6 - 74] (puzzle: Exclusion 6)	12.9	–	–	–
CCGGAAAUGAAGGAUAUAGGCGUCGAUAGACUCCUAGAAGGUCAUACAUGAGGAUCACCCAUGUGUCCUACCGG [Fiskers Ex 6 - 75] (puzzle: Exclusion 6)	14.7	–	–	–
CCGGAAAUGAAGGAUAUAGGUGUCGAUAGACUCCUAGAAGGUCAUACAUGAGGAUCACCCAUGUGUCCUACCGG [Fiskers Ex 6 - 76] (Eterna round: R96, puzzle: Exclusion 6)	–	36.7	18	apparent KD of MS2 coat protein [4]: 13.3 nM
CCGGAAAUGAAGGAUAUAGGUGUCGAUAGACUCCUAGAAGGUCAUACAUGAGGAUCACCCAUGUGUCCUACCGG [Fiskers Ex 6 - 76] (puzzle: Exclusion 6)	15.6	–	–	–
CCGGAAGUACAGGAUAUCGUAACGGAGACGUUACGAGAAGGGUAUACAUGAGGAUCACCCAUGUGUCCUACCGG [Mat - Exclusion 6 - Eli Mod - D94] (puzzle: Exclusion 6)	22	–	–	apparent KD of MS2 coat protein [1]: 33.8 nM; apparent KD of MS2 coat protein [3]: 32.2 nM
CCGGAUAUGCAGGAUAUCGUAUCGGAAACGAUACGAGAAGGGUAUACAUGAGGAUCACCCAUGUGCCUUACCGG [Fiskers Ex 6 - 19] (puzzle: Exclusion 6)	16	–	–	–
CCGGAUAUGCAGGAUAUCGUAUCGGAGACGAUACGAGAAGGGUAUACAUGAGGAUCACCCAUGUGUCCUACCGG [Mat - Exclusion 6 - Eli Mod - D84] (puzzle: Exclusion 6)	22.2	–	–	–
CCGGCGUGGUGCGGUAGUUGUACGACAUGAGGAUCACCCAUGUAGGAUAUGCGCGUGGUCGCGCCGCAGAAGGACAACGUUUGG [Random, 20% A] (Eterna round: R96, puzzle: Exclusion NG 3)	–	19.6	23.9	apparent KD of MS2 coat protein [4]: 14.6 nM
CCGGUAUAGGAGGAUAUAGGAGUCGAUAGACACCUAGAAGGCCUGACAUGAGGAUCACCCAUGUGUCCUACCGG [Fiskers Ex 6 - 96] (puzzle: Exclusion 6)	15.9	–	–	–

Sequence	apparent KD of MS2 coat protein [2] [nM]	apparent KD of MS2 coat protein (input ligand: FMN 200 uM) [nM]	apparent KD of MS2 coat protein (input ligand: none) [nM]	further results
CCGUAGUCAGGAUAUACAUGAGGAUCACCCAUGUAAAAUUUUAAUUUAAUUUGAAGGUGUAGAAGGGACCAGUC [Ex3 #27] (Eterna round: R97, puzzle: Exclusion 3)	–	34.9	33.3	–
CCGUCACAUGAGGAUCACCCAUGUCAGGAUAUCUAUCAUAGCAUCGAAAGAUGCGGGUAGAGAAGGGACUAUCC [ChP Ext 10-04-2015 #7] (puzzle: Exclusion 1)	20.3	–	–	–
CCGUGGCAAGGAUAUACAUAGGAGAGGAAGGCAAGAGGUGGACAUGAGGAUCACCCAUGUAGAAGGUGCAGAUC [JR_Exclu2_Sub027] (puzzle: Exclusion 2)	157	–	–	–
CCGUGGCAAGGAUAUACGUAGGAGAGGAAGGCAAGAGGAGGACAUGAGGAUCACCCAUGUAGAAGGUGCAGAUC [JR_Exclu2_Sub029] (puzzle: Exclusion 2)	77.4	–	–	apparent KD of MS2 coat protein [1]: 62.3 nM; apparent KD of MS2 coat protein [3]: 94.5 nM
CCGUUCCGUGUAGGAUAUUGGCCCACCACGGGCCGAGAAGGACAUGAGGAUCACCCAUGUAUGCUAUUAUCGCGCGUGGCGCCC [Design 100] (Eterna round: R96, puzzle: Exclusion NG 1)	–	148	24.2	apparent KD of MS2 coat protein [4]: 14.8 nM
CCGUUGUCAGGAUAUCGUGCAUACAACGAAAGUUCUAUGUGCGAGAAGGGACAUGAGGAUCACCCAUGUUACGG [Omei Ex4 A1] (Eterna round: R97, puzzle: Exclusion 4)	–	90.3	41.2	–
CCUAAAUCCUAGGAUAUGCUAGACGAAAGUCUAGCAGAAGGAGGAACAUGAGGAUCACCCAUGUGUCCUAUAGG [Mat - Exclusion 6 - Eli Mod - D31] (Eterna round: R97, puzzle: Exclusion 6)	–	20.6	16.5	–
CCUAGUUGGUAAGGAUAUCCUACACUAUUCUGACCCGUGCAAGCUACAUGAGGAUCACCCAUGUGGGAGAAGGUGCGUUAACGU [Design 9] (Eterna round: R96, puzzle: Exclusion NG 2)	–	31.2	26.7	apparent KD of MS2 coat protein [4]: 23.4 nM
CCUCAGUAAGGAUAUCAGCUUAGUAGGUUGGUAAUGAGAGCUGAGAAGGUACAUGAGGAUCACCCAUGUUAGUU [JL Zatite mod 10] (puzzle: Exclusion 4)	28.8	–	–	–
CCUCCACAUGAGGAUCACCCAUGUCAGGAUAUAGGAUUGCUAUCAUGAGAGGAUGGCGUUAGAAGGGACAUCAC [Eternabot (L1) Solution 69] (Eterna round: R97, puzzle: Exclusion 1)	–	44.5	40	–
CCUCCACAUGAGGAUCACCCAUGUCAGGAUAUCGUGUGUGCGUUUUCGGUCUUUCGUGCGAGAAGGGACGUCUG (puzzle: Exclusion 1)	52.7	–	–	–
CCUCCCUGAGGAUAUCCACCCUCAUACAUGAGGAUCACCCAUGUUCAUCCGUGGGUACCCGGAGAAGGCAGAUCUC [Megrez-b] (Eterna round: R97, puzzle: Exclusion 5)	–	81	85.9	–
CCUCCGGUGCGAGGAUAUCUGGCGGCCGCCGGUGGAGAAGGCGUACAUGAGGAUCACCCAUGUCCAGCGUGCUCCUCGCUGGUU [0.15] (Eterna round: R96, puzzle: Exclusion NG 1)	–	75	31	apparent KD of MS2 coat protein [4]: 19.9 nM
CCUCGACAUGAGGAUCACCCAUGUAAGGAUAUAAGUGCAGAGGGCGCGUAAUUAAUCGUGAGAAGGUACAACAC (Eterna round: R97, puzzle: Exclusion 1)	–	32.1	31.1	–
CCUCGACAUGAGGAUCACCCAUGUCAGGAUAUUGUGUCUCGGGUUUUUUACCGAAAGGCGAGAAGGGAUGUGUG [LRO-Excl1-12] (puzzle: Exclusion 1)	13.9	–	–	–
CCUCGACAUGAGGAUCACCCAUGUCAGGAUAUUGUGUCUCGGGUUUUUUACCGAUAGGCAAGAAGGGAUGUGUG [LRO-Excl1-13] (puzzle: Exclusion 1)	21.5	–	–	–
CCUCGACAUGAGGAUCACCCAUGUCAGGAUAUUGUGUUUCGGGUUUUUUACCGUUAGGCAAGAAGGGAUGUGUG [LRO-Excl1-15] (puzzle: Exclusion 1)	25.1	–	–	–
CCUCGUUGGGAGGAUAUCCUUUAGAUUGGAGGAGGAGAAGGCUCGACAUGAGGAUCACCCAUGUGGGAUUUCCC [-24.6, -21.9 kcal, A 23%] (Eterna round: R97, puzzle: Exclusion 6)	–	127	35.6	–
CCUCUACAUGAGGAUCACCCAUGUCAGGAUAUCGUGUGUUUUUUUUCGGCCGCGCGUGCGAGAAGGGACGUCUU (Eterna round: R96, puzzle: Exclusion 1)	–	35.2	36.2	apparent KD of MS2 coat protein [4]: 26 nM
